Source: paper PMC7368010, “Global translation during early development depends on the essential transcription factor PRDM10”

T1: GST-PRDM10 441-880 (central zinc finger array) (UniProt Q3UTQ7 441-880)
T1 sequence: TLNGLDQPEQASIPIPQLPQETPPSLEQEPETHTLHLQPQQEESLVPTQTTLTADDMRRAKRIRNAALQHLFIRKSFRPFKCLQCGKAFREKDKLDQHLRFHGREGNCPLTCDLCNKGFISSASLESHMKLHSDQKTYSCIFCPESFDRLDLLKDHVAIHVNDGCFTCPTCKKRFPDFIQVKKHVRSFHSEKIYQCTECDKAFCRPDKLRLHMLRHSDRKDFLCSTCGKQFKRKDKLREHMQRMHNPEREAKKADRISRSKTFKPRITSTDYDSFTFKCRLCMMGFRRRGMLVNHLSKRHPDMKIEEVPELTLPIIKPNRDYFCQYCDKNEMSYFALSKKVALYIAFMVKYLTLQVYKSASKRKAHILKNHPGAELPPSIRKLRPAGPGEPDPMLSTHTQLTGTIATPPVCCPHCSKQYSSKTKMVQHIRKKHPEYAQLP

B1: WT probe (dsDNA)
DNA 1: CTGGCACAGTGGTCGCGCCCGGCCCGCC
DNA 2: GGCGGGCCGGGCGCGACCACTGTGCCAG
B2: WT unlabeled competitor (dsDNA)
DNA 1: CTGGCACAGTGGTCGCGCCCGGCCCGCC
DNA 2: GGCGGGCCGGGCGCGACCACTGTGCCAG

Legend:
[1] = molecular target: T1, GST-PRDM10 441-880 (central zinc finger …); test: EMSA; 125-1000 nM protein, 10 nM probe; 0.4 uM ZnCl2; EMSA: 6 mM HEPES-KOH pH 7.9, 6% glycerol, 100 ug/mL BSA, 0.4 uM ZnCl2, 20 ug/mL poly(dI-dC), room temperature 20 min; 6% native PAGE in 0.25x TBE; details: protein: recombinant; tags: GST; label: 5'-biotin; blunt
[2] = molecular target: T1, GST-PRDM10 441-880 (central zinc finger …); test: competition; EMSA, 20- to 320-fold excess over 10 nM labeled WT probe; 0.4 uM ZnCl2; EMSA: 6 mM HEPES-KOH pH 7.9, 6% glycerol, 100 ug/mL BSA, 0.4 uM ZnCl2, 20 ug/mL poly(dI-dC), room temperature 20 min; 6% native PAGE in 0.25x TBE; details: protein: recombinant; tags: GST; blunt

Row | Binder | binding result [1] | binding result [2]
1 | B1 | binds | –
2 | B2 | – | binds
